From the DeepSol protein solubility set come the findings set out here.

A short description of the data set: soluble on expression in E. coli; label from the status in PepcDB or PDB records.
Turning to “MGSDKIHHHHHHMTNRYDAVIIGAGHNGLVCGAYLARKGFKVCLLERRELAGGAAVSEAVWPGYRVSTASYTMALLQPRIIDELELAKYGYEIVVPPPMLHLYGDGRSLLFRPEGERLSADIARFSEADADAYGKYRAHMARLGKMVAGMLWETPPDPADSTLSARSRLLGFAWRFRDMGEQFYDLYDVLTLSARDYLARWFESDEMIAALGFYASCGGAATSICSPGSAYVLLRGFIRDHTTSAGPAGFVRGGMGSISEAIAASGKAYGMEVRCNAPVASVEISGERATGVRLSSGELIEAGCVISNVATKVLFQQLVGAQNVPPEFLARVRQIRDRSTAFKVNLALRRLPTFKDFDARSAGFAYPAQVRLAPSVEYLERAWDAAKYGEISPRPPLVVLTPSAVDPGVAPKGKHLMSIFGQHAPYALRDGPWDDAQRERLYQITLDTLAAYAPDIRECIDDAQVLSPADLERIFALPGGHVHHGELSADQIFFRRPVQGAADYCTPVKGLYQCGASVHPGGGVTGVPGYNAAHVVVRRERH”, the “soluble on expression in E. coli” value is recorded as “not soluble”.
As to “MHYFSEKPTTKSDVKIVEDILRGKKLKFKTDSGVFSYGKVDKGTKILVENVVVDKDDDILDLGCGYGVIGIALADEVKSTTMADINRRAIKLAKENIKLNNLDNYDIRVVHSDLYENVKDRKYNKIITNPPIRAGKEVLHRIIEEGKELLKDNGEIWVVIQTKQGAKSLAKYMKDVFGNVETVTIKGGYRVLKSKKL”, the “soluble on expression in E. coli” value is recorded as “soluble”.
Consider “MGSDKIHHHHHHMIKLKTFGSFTVGNDISSVQEGAWRSEKLEKLFVYLAMNRNRGVCIEDISEAIWQVEEETDNPVGALKNLAYRLRKALRDASFDEECIVSVRGGLYKWNDDVEVTIDVEEFDRYINEAEMAFCRSKETAIESYEKAIALYHGDFLPLRTDTHWFMTLNAFYHSRYVNTVKALAKLYIDTGCYEKLEQLCIRAIVYERSDEQIYSYLIMARMRTKKVQMAFDTYETAKAIMDKDLGVRKTVMLNKVYEELLSVTKGVSSYNIDEVKEDINEESMEGVFMCGYPVFKEIYHLEVRKSARSTIPESLVLVTVVPMYSSQPDKNHSQMKDSMHTLERALRKCLRVGDVAAKYSDSQYIVLLSKCSCDTASDVMKRIIDRFNHTCDTHSNMTIHFDIEPVSCYSSFVSDK”, for which the “soluble on expression in E. coli” value is listed as “not soluble”.
In the case of “MSRAVSRLIEACGRLSITQRSQMHFFRPPPTSSILPPLVTPSTTIVEKSIELPSLENPQQIYTFPTLHRSPIVAPGAILTEILEKLAPTAEKGFLIAPGTPNKSPMWLSPRLLTIRRKKMKKHKRRRRYDRDFFKYQKYHREKKLKSEREFQKRMKSLLTELEAFNPEKYVKDTIRMANKEWQDELAPTGRKLYPHWSRFMSLEQLYGLPKSEYIDKRAGLPTPEEAEQIKALKEKYAKLYRKK”, the “soluble on expression in E. coli” value is listed as “soluble”.
For “MALARANSPQEALLWALNDLEENSFKTLKFHLRDVTQFHLARGELESLSQVDLASKLISMYGAQEAVRVVSRSLLAMNLMELVDYLNQVCLNDYREIYREHV”, the “soluble on expression in E. coli” value was “soluble”.
The entry for “MSLTKDPEWLTKEFAGNPIRTGRTIEDPDFPRIAITYSIQENEDNSKQIQDEMKDIIKDYNDYYHTAWSIEDIERYNGDINNRLARKKAEFKEFGKQIDLVIVVDRLLTGFDAPTIQTLFVDRNLSYANLIQAFSRTNRTYPGKTKGLIVTFRKPSTMEQNVKDATKLYSEAQEESDLVYPTYDESKKRFKKAHKLLTTLVPNPTDINEHSPLEIRIEFVKAFQELNNTYEALVTYDEYNDDMEKSKVLQEQINTLEEYIGVYNTVKGSLVDEGAQDGPGPDFSGIEFYGENAIKVYDIDSTYIDRLLGTYSANNQNIRDEIEKALQKLKKLEIVKDVYRAMLNAIDTKKIDSEEDILVVKRRFFTESYDKAIKEFANTWFVEGNELHLSAIQYVIGSDPIPNIRGIINSKQFDKYKAIHPDAKPLKYGPEMKRQWRKTLDEVIVPLADELREGHHHHHH” is “soluble”; for “MGSDKIHHHHHHMPKHLYSLLVVNINMFEKEKEILAKRIAGEIVLSPDPGKTMRKWREIFGISQTELADYLGVSSSVISDYEGGRRKSPGASTIRKFVEALIEIDEKRGGNVIKAFSRTFSSEIPTSAILDIREFDIPVTVKDIVDAVKGEIVANPDLIDRKIYGYTVVDSIQAILEMSAEEFLKLYGWTTERALVFTKVTTGRSPMIAVRVQGLKPAMVVLHGVKRLDELAVKIAEKERVPLVVSKAENETELITGLRRLVTSI” it is “not soluble”; for “MKFKLFLGSSFFGVATLLIACGTGRFDQIDDGKIKLAVVTSPSAASSLQTLLDQYNNTKAPADYPVEVVSLDSTGSYTKGKFDTQKRLAAKDKNNFYN” it is “not soluble”.
For “MAHHHHHHMGNTTDPGAAPLHSSGFFKISARFPKAAVAASGAGPSLKRRRAEAFVVGDDGVPTLRTTAIAPGEQVGGDGTAEPFEFFKAQQDAFMNDIEGIKDAQLQRFNRKARRIMKSRRAWASSSSSGRHANSQQHSSSSGTHVTGSGALSKTGAKKTKPKRY”, the “soluble on expression in E. coli” value is “soluble”.
Turning to “GSMEPAMEPETLEARINRATNPLNKELDWASINGFCEQLNEDFEGPPLATRLLAHKIQSPQEWEAIQALTVLETCMKSCGKRFHDEVGKFRFLNELIKVVSPKYLGSRTSEKVKNKILELLYSWTVGLPEEVKIAEAYQMLKKQGIVKS”, the “soluble on expression in E. coli” value was “soluble”.
Consider “MGSDKIHHHHHHMFVGASEFRLTDAEHGLSFPVLVMYPTRQLPSRHAFGPYLMDVSMNAPIAGGQHPLILVSHGSGGSHLLYRTMTAHLAQHGYVVAMIEHPGNNRVDNQFMGKVENLQYRPRHLRLTADALYGDAVLGPHLQAGRIGVIGHSMGGYTALALAGGTPWYPPEAFQPDYRGPAPAVVDVEHDDRVKALVLLAPATVWFMPEHALEDVDVPILMLSAEHDPYTPAWHGEIVRKGVRDPANVTSRCVKNAGHFSFLSPFPPKIKQGGALPTIDPEGFDRERFHEQLKQEILAYFNLRLKTAPA”, for which the “soluble on expression in E. coli” value was “not soluble”.
The entry for “MGSDKIHHHHHHMCPLMAENHEVIEEGNSSELPLSAEDAKKLTELAENVLQGWDVQAEKIDVIQGNQMALVWKVHTDSGAVCLKRIHRPEKKALFSIFAQDYLAKKGMNVPGILPNKKGSLYSKHGSFLFVVYDWIEGRPFELTVKQDLEFIMKGLADFHTASVGYQPPNGVPIFTKLGRWPNHYTKRCKQMETWKLMAEAEAAAPFSQLYLQEIDGFIEDGLRIKDRLLQSTYVPWTEQLKKSPNLCHQDYGTGNTLLGENEQIWVIDLDTVSFDLPIRDLRKMIIPLLDTTGVWDDETFNVMLNAYESRAPLTEEQKQVMFIDMLFPYELYDVIREKYVRKSALPKEELESAFEYERIKANALRQLI” is “not soluble”.
Turning to “MSLETETMSQDLMQRGKAIKLAVFDVDGVLTDGRLYFMEDGSEIKTFNTLDGQGIKMLIASGVTTAIISGRKTAIVERRAKSLGIEHLFQGREDKLVVLDKLLAELQLGYEQVAYLGDDLPDLPVIRRVGLGMAVANAASFVREHAHGITRARGGEGAAREFCELILSAQGNLEAAHSVYLEGHHHHHH”, the “soluble on expression in E. coli” value is on record as “soluble”.
As for “MGSDKIHHHHHHMLTQLQCPSCGGRLLSNKEGRNSILCQSCKKEFSAREGVLCFVPDNVFTQLDNIDYDKHYSISDESSQQAFASLKGVLGNRLKNNYGVLLEIGAGTGGFTKGLLTNIKVNRAIVTDISPKMLSICRKRVLGESHLADDVIFATYSTGENILPSNSIDCIIGSFVLHHILDYKSFIRKSYDLLKKDGAFIFSEPCYKFHDALVLTMSEILETLIGEGDNSEVDLTRLSNWIHELHFNLKYVGDQDVLSGREDKHLFIRSEVENSAFDVGFELVEILPYGDPDAINQCLLSYLPQLDLSHIFLQKVSNLFDLYHIKYFGLIEREDAVPAYVFFFKKKMNLFSRLFKNV”, the “soluble on expression in E. coli” value is given as “not soluble”.
For the sequence “SLKIKHEHIESVLLALAAEKGQAWVANAITEEYLRQGGGELPLVPGKDWNNQQNIYHRWLKGETNAQREKIQKLIPAVLAILPRELRHRLCIFDTLERRALLAAQDALSTAIDAHDDAVQAVYRKAHFSGGGSPSDSVVVH”, the “soluble on expression in E. coli” value is recorded as “soluble”.
For the sequence “AIAGSVNSRGHKAEAQVVMMGLDSAGKTTLLYKLKGHQLVETLPTVGFNVEPLKAPGHVSLTLWDVGGQAPLRASWKDYLEGTDILVYVLDSTDEARLPESAAELTEVLNDPNMAGVPFLVLANKQEAPDALPLLKIRNRLSLERFQDHCWELRGCSALTGEGLPEALQSLWSLLKSRSCMCLQARAHGAERGDSKRS”, the “soluble on expression in E. coli” value was “soluble”.
As for “MSSSDAFWRMFANKNKGKSNTRSAFQVVKEEQPSTSTEPDDKKPLHHEIAGEMIKNPAKGKRKRVQIKNDEYEQLMMLGVPVRVPRGLSLYSTQKLMIVRILTALKNSQNVLGESPTGSGKTMALLASTCAWLKQYIDEKRESKEKCEIHGFSGKTQVVFTNDIGIPLESKVYEEPPEEEEFIEPVPVKNDKLFEAQWEHDFTPHTPGETPPVTLKEELEPVKKPEPVETKCTCLPRVRIYYGTRTHKQIAQVVKEFSRLPYAKILKHTILASREQSCINPAARKHADISQYCKEVNSAHSIGCSFKSAMKPRFEKALPLRDHLERNGTVVFDMEKIVETLAISYPQLCPYFSTNRILTQDADIIFCPFSYLVDPLIRNSSDVQIRNSIVILDEAHNIEDTCREAASFSFTEKELDDSILSLRIKRKAVDTELDKTGIEEKLLHIPDREVHLKEFRGHLLYLEHLILEMLRWIRQVSTEAKTPARGGQDGVKTCTISSANLFTSLTDPENGVDLFTPPLTPKHAAVAASFSAITKHNEPEMQYFDAFKPSSTAIVCIEKWLYFQSYFGNQQYQSTYRLNISIEPINQNGRFNHTFDADVSMSTSFGNPRPTTTRSSAGPRNMQYKEENAWLADAAADGDDWKDPSMSETGHKPISEGCKTTISLWCMSPALSFFDAFNETRSIVLASGTLCPMDTLKTELGMEFKQQVEGDQVINKDNIFAAVLPIGPFGNRIQCTYRNTSDPESSFYCELGAIIKYVCSNVPAGILCFLPSYRVLDQLKQCMIRNSTMRQIEMKKVVLYEPRRSSELTSVMDQFDAAIFDPSRFGANINGSLMFAVFRGKVSEGIDFADDRARVVISVGIPYPNAMDDQVNAKKLYNDQNSKEKGILTGDEWYTTQAYRALNQALGRCLRHKNDWGAMLMIDERLERQTGNLVGGASSARVSKWIRAQLKSYPSFKEFNANFREFIQRRHAVEKAKKENFCE”, the entry is “not soluble”; as for “MAGENIIIDLNFAVSANPREVWDVLTDFDRMADFVSNLKESKVVSISEDKFTIFQNGTATYGPIRYPFESIREVRLIPYHKILTHLVSGNMHKLDGTTYLTDETGGTRVVHRTEAIPKVWIPAVVGKVFIEHEVREQFNEMRNEIIRRKRAALKKGHEKQDGRLEHHHHHH”, “soluble”.
As for “MGSDKIHHHHHHMPSVFQLQALCAAVEKPSLRQAAEALCKTQPALTHALKQLESQLGLPLFNRDGYRLVLTGSGERIYQLALKTLESHAELEQLAQHLARGDEDRVVLTVEASFDLTPILSALESVQAEFSQTEIVIQQEYLTGAVERVQQGHANLAITPLAPALSPGTRLDTQPLSQGQMLNVAAPRLLARYPSLCSILELRKEYQILVQDSGSGTLGLKLGVQSAQRHWYVNSFATKLSLIEQGMGWGRLPEWMLTEALAAGRLQLLELADFPARQRFDYHLVRRSASVPGPVATRLWQRLGGGAL”, the entry is “not soluble”; as for “MYEGEIAIGPVHSTMLEPHRLRLFIEDEIVKDAELTIGVNHRGVERLMEGLPVEKACILCEKICGICSHIHLWSAARVAEIGCNIEVPERANHIRIIVEELERLHSHTLLFGHAFEILGHETMSMRCFMLREPIMQVFFEISGSRVHYSCPIIGGIRPRCNISETQISHIHDKISQYEEGLTKFIERMLNDPMIISRVKDVGVMDRKTAAKFHAVGPTARGSNVKSDMRKWGWVPEYDPYDFDEILFDSGDVFARLAVRFYECLESVKIIRQALDALKDTSDKRIYNPNYELNEFKPINCYTEAQRGEQYYSYGLDDEGLVRQAKIRTPTATNLGAMEDIVKGYHVSDAELIIASCDPCFTCTDRLMVLKEPFKK”, “not soluble”.
